From publication PMC9569306
Each block holds one substance with its values, some of them ahead of it.

Legend:
[1] = target: ferredoxin-NADP+ oxidoreductase (FNR) from Chlamydomonas reinhardtii (C. reinhardtii) (UniProt P53991)
[2] = target: [FeFe]-hydrogenase HydA2 from Chlamydomonas reinhardtii (C. reinhardtii)
[3] = target: [FeFe]-hydrogenase HydA1 from Chlamydomonas reinhardtii (C. reinhardtii)
[4] = target: [FeFe]-hydrogenase HydA1 from Chlamydomonas reinhardtii (C. reinhardtii); remark: listed apart in the source
[5] = target: ferredoxin-NADP+ oxidoreductase (FNR) from Chlamydomonas reinhardtii (C. reinhardtii) (UniProt P53991); remark: listed apart in the source

Chain of UniProt P53991 (P53991 36-354): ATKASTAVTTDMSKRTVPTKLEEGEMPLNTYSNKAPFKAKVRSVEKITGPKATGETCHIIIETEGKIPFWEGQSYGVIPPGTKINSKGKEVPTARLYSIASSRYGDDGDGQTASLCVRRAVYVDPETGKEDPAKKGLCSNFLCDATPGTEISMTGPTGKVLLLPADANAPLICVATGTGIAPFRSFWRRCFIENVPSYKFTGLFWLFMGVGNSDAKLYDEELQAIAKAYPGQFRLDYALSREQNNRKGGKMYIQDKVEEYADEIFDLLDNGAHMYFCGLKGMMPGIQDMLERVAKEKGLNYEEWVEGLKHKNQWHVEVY

Substance: ferredoxin Fdx3 from Chlamydomonas reinhardtii (natural protein)
- light-dependent H2 production of HydA1 (50 nM, 10 µM ferredoxin) left in the presence of the competitor FNR (50 nM), against the rate without FNR [4]: 29%
- H2 production rate of HydA2, 50 µM ferredoxin reduced with 10 mM sodium dithionite, against PetF (% of the rate with PetF) [2]: 10

Substance: ferredoxin Fdx7 from Chlamydomonas reinhardtii (natural protein)
- light-dependent H2 production of HydA1 (50 nM, 10 µM ferredoxin) left in the presence of the competitor FNR (50 nM), against the rate without FNR [4]: 59%
- H2 production rate of HydA1, 50 µM ferredoxin reduced with 10 mM sodium dithionite, against PetF (% of the rate with PetF) [3]: 14

Substance: ferredoxin Fdx8 from Chlamydomonas reinhardtii (natural protein)
- light-dependent H2 production of HydA1 (50 nM, 10 µM ferredoxin) left in the presence of the competitor FNR (50 nM), against the rate without FNR [4]: 52%

Substance: ferredoxin Fdx10 from Chlamydomonas reinhardtii (natural protein)
- light-dependent H2 production of HydA1 (50 nM, 10 µM ferredoxin) left in the presence of the competitor FNR (50 nM), against the rate without FNR [4]: 43%
- NADPH-dependent cytochrome c reduction, 40 nM FNR, 5 µM ferredoxin (µM cyt c × min^−1) [5]: 23.3

The next lines start with the values.

- NADPH-dependent cytochrome c reduction, 40 nM FNR, 5 µM ferredoxin, initial reaction speed (µM cyt c × min^−1) [1]: 121
- H2 production rate of HydA2, 50 µM ferredoxin reduced with 10 mM sodium dithionite (µmol H2 × min^−1 × mg^−1) [2]: 12.6
- H2 production rate of HydA1, 50 µM ferredoxin reduced with 10 mM sodium dithionite, against PetF (% of the rate with PetF) [3]: 40
Substance: ferredoxin Fdx2 from Chlamydomonas reinhardtii (natural protein)

- NADPH-dependent cytochrome c reduction, 40 nM FNR, 5 µM ferredoxin (µM cyt c × min^−1) [5]: 34.4
Substance: ferredoxin Fdx11 from Chlamydomonas reinhardtii (natural protein)

- NADPH-dependent cytochrome c reduction, 40 nM FNR, 5 µM ferredoxin, initial reaction speed (µM cyt c × min^−1) [1]: 84.2
- H2 production rate of HydA2, 50 µM ferredoxin reduced with 10 mM sodium dithionite (µmol H2 × min^−1 × mg^−1) [2]: 63.9
- H2 production rate of HydA1, 50 µM ferredoxin reduced with 10 mM sodium dithionite (µmol H2 × min^−1 × mg^−1) [3]: 225
Substance: photosynthetic ferredoxin PetF from Chlamydomonas reinhardtii (from UniProt P07839 33-126) (natural protein)
